Measured values as given in patent US20260226154A1 (CEPHALON, published 2026).

T1: PACAP38 (human, not fully specified)
T1 construct: The background says natural PACAP is alpha-amidated
T1 peptide: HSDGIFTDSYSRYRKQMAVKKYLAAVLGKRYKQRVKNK

T2: VIP (human)
T2 construct: also called vasoactive intestinal peptide
T2 peptide: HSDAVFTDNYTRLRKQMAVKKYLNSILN

T3: PACAP27 (human, not fully specified)
T3 peptide: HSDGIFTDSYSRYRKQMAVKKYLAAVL


Legend:
PACAP38 [1] = molecular target: T1, PACAP38; experiment: SPR (Biacore), 37 C, antibody captured via anti-human Fc, peptide analyte
Protocol: (§1) In brief, antibody and peptide interaction was determined on a Biacore S200 (GE Healthcare) by method previously described (Andreu and Gomes 2002). An anti-Human IgG Fc capture antibody was immobilized on a CM5 biosensor chip via standard amine coupling. Anti-PACAP antibodies were injected and captured to 200 to 400 response units (RU),). PACAP38, PACAP27 and VIP were diluted in HBS-EP+ buffer containing 0.1% w/v BSA (Bovostar, catalog number BSAS1.0) and 0.15 M NaCl (Sigma-Aldrich catalog number S7653), pH 7.4. Binding kinetics of antibodies were determined by injection of two-fold serial dilutions of PACAPs (12 nm to 0 nM) and VIP (1200 nM to 0 nM) in running buffer at 37° C. with a flow rate of 40 μL/min for 2 min followed by a dissociation for 10 minutes. For subsequent cycles, the chip was regenerated using 0.85% phosphoric acid. Data was analysed with the Biacore S200 Evaluation Software (ver 1.0). Association rate (kₐ) and dissociation rate (kd) constants were determined using a simple one-to-one Langmuir binding model and used to calculate the equilibrium dissociation constant (KD).

PACAP38 [2] = molecular target: T1, PACAP38; experiment: cell-based or functional assay
PACAP38 [3] = molecular target: T1, PACAP38; experiment: cell-based or functional assay
VIP = molecular target: T2, VIP; experiment: SPR (Biacore S200), 37 C, captured antibody, steady state affinity
Protocol: as §1
(§2) Due to very fast on-rate and off-rate with VIP, binding affinity at steady state was used.

PACAP27 = molecular target: T3, PACAP27; experiment: SPR (Biacore S200), 37 C, captured antibody, peptide dilution series, 1:1 Langmuir fit
Protocol: as §1, §2

PACAP38 [4] = molecular target: T1, PACAP38; experiment: as above
Protocol: as §1, §2

PACAP38 [5] = molecular target: T1, PACAP38; experiment: SPR (Biacore S200) off-rate ranking, antibody captured from supernatant, single injection of 33.3 nM PACAP38
Protocol: as §1, with “Binding kinetics of antibodies were determined by injection of two-fold serial dilutions of PACAPs (12 nm to 0 nM) and VIP (1200 nM to 0 nM) in running buffer at 37° C. with a flow rate of 40 μL/min for 2 min followed by a dissociation for 10 minutes.” left out

Binder	Kd (PACAP38 [1])	koff (PACAP38 [1])	kon (PACAP38 [1])	PACAP-38 IC50 (PACAP38 [2])	IC50 (nM), PACAP-induced cAMP accumulation, CHO-K1 cells, cAMP-Glo (PACAP38 [3])	Kd (VIP)	Kd (PACAP27)	koff (PACAP27)	kon (PACAP27)	Kd (PACAP38 [4])	koff (PACAP38 [4])	kon (PACAP38 [4])	Kd (PACAP38 [5])	koff (PACAP38 [5])	kon (PACAP38 [5])
917B (antibody, V domains shown, Humanized anti-PACAP variant) VH: EVQLVQSGAEVKKPGSSVKVSCKASGGTFSDSYMHWVRQAPGQGLEWMGLIYPIFADTRYAQKFQGRVTITADESTSTAYMELSSLRSEDTAVYYCAIDQDGSFAYWGQGTLVTVSS VL: DIVMTQSPDSLAVSLGERATINCKSSQSLLDSDGKTYLNWLQQKPGQPPKRLIYLVSTRESGVPDRFSGSGSGTDFTLTISSLQAEDVAVYYCWQGTWFDLTFGGGTKVEIK	0.00969 nM	0.000122 s⁻¹	1.26e+07 M⁻¹ s⁻¹	0.19 nM	0.19 nM	–	–	–	–	–	–	–	–	–	–
519C (antibody, V domains shown, LC S(27E), G29, L50, V51, K53T, L54R, D55E, H93W, P95D) VH: EVQLVQSGAEVKKPGSSVKVSCKASGGTFSDLYMHWVRQAPGQGLEWMGLIYPIFADTRYAQKFQGRVTITADESTSTAYMELSSLRSEDTAVYYCAIDQDGSFAYWGQGTLVTVSS VL: DIVMTQSPDSLAVSLGERATINCKSSQSLLDSDGKTYLNWLQQKPGQPPKRLIYLVSTRESGVPDRFSGSGSGTDFTLTISSLQAEDVAVYYCWQGTWFDLTFGGGTKVEIK	0.0218 nM	0.000483 s⁻¹	2.22e+07 M⁻¹ s⁻¹	0.27 nM	–	–	–	–	–	–	–	–	–	–	–
524C (antibody, V domains shown, LC S(27E), G29, L50, V51, K53T, L54R, D55E, H93W, P95D) VH: EVQLVQSGAEVKKPGSSVKVSCKASGGTFSDSYMHWVRQAPGQGLEWMGLIYPIFADQRYAQKFQGRVTITADESTSTAYMELSSLRSEDTAVYYCAIDQDASFAYWGQGTLVTVSS VL: DIVMTQSPDSLAVSLGERATINCKSSQSLLDSDGKTYLNWLQQKPGQPPKRLIYLVSTRESGVPDRFSGSGSGTDFTLTISSLQAEDVAVYYCWQGTWFDLTFGGGTKVEIK	0.035 nM	0.000546 s⁻¹	1.56e+07 M⁻¹ s⁻¹	0.36 nM	–	–	–	–	–	–	–	–	–	–	–
609C (antibody, V domains shown) VH: EVQLVQSGAEVKKPGSSVKVSCKASGGTFSDLYMHWVRQAPGQGLEWMGLIYPIFADTRYAQKFQGRVTITADESTSTAYMELSSLRSEDTAVYYCAIDQDGSFAYWGQGTLVTVSS VL: DIVMTQSPDSLAVSLGERATINCKSSQSLLDADGKTYLNWLQQKPGQPPKRLIYWASTRESGVPDRFSGSGSGTDFTLTISSLQAEDVAVYYCWQGTWFDLTFGGGTKVEIKR	0.0228 nM	0.00118 s⁻¹	5.17e+07 M⁻¹ s⁻¹	0.83 nM	0.83 nM	–	–	–	–	–	–	–	0.0228 nM	0.00118 s⁻¹	5.17e+07 M⁻¹ s⁻¹

More lines, in order of falling Kd (PACAP38 [1]), values ahead:

Kd (PACAP38 [1])	koff (PACAP38 [1])	kon (PACAP38 [1])	PACAP-38 IC50 (PACAP38 [2])	IC50 (nM), PACAP-induced cAMP accumulation, CHO-K1 cells, cAMP-Glo (PACAP38 [3])	Kd (VIP)	Kd (PACAP27)	koff (PACAP27)	kon (PACAP27)	Kd (PACAP38 [4])	koff (PACAP38 [4])	kon (PACAP38 [4])	Kd (PACAP38 [5])	koff (PACAP38 [5])	kon (PACAP38 [5])	Binder
0.0866 nM	0.00584 s⁻¹	6.75e+07 M⁻¹ s⁻¹	1.3 nM	–	–	–	–	–	–	–	–	–	–	–	919A (antibody, V domains shown, Humanized anti-PACAP variant) VH: EVQLVQSGAEVKKPGSSVKVSCKASGGTFSDSYMHWVRQAPGQGLEWMGLIYPIFADTRYAQKFQGRVTITADESTSTAYMELSSLRSEDTAVYYCAIDYDGSFAYWGQGTLVTVSS VL: DIVMTQSPDSLAVSLGERATINCKSSQSLLDSDGKTYLNWLQQKPGQPPKRLIYLVSTRESGVPDRFSGSGSGTDFTLTISSLQAEDVAVYYCWQGTHFPLTFGGGTKVEIK
0.0376 nM	0.000789 s⁻¹	2.1e+07 M⁻¹ s⁻¹	0.4 nM	0.4 nM	–	–	–	–	–	–	–	0.0376 nM	0.000789 s⁻¹	2.1e+07 M⁻¹ s⁻¹	627C (antibody, V domains shown) VH: EVQLVQSGAEVKKPGSSVKVSCKASGGTFSDVYMHWVRQAPGQGLEWMGLIYPIFADTRYAQKFQGRVTITADESTSTAYMELSSLRSEDTAVYYCAIDQDGSFAYWGQGTLVTVSS VL: DIVMTQSPDSLAVSLGERATINCKSSQSLLDSDGKTYLNWLQQKPGQPPKRLIYWASTRESGVPDRFSGSGSGTDFTLTISSLQAEDVAVYYCWQGTWFDLTFGGGTKVEIKR
0.0284 nM	0.00204 s⁻¹	7.19e+07 M⁻¹ s⁻¹	0.7 nM	0.7 nM	–	–	–	–	–	–	–	0.0284 nM	0.00204 s⁻¹	7.19e+07 M⁻¹ s⁻¹	608C (antibody, V domains shown) VH: EVQLVQSGAEVKKPGSSVKVSCKASGGTFSDLYMHWVRQAPGQGLEWMGLIYPIFADTRYAQKFQGRVTITADESTSTAYMELSSLRSEDTAVYYCAIDQDGSFAYWGQGTLVTVSS VL: DIVMTQSPDSLAVSLGERATINCKSSQSLLDSDGKTYLNWLQQKPGQPPKRLIYWASTRESGVPDRFSGSGSGTDFTLTISSLQAEDVAVYYCWQGTWFDLTFGGGTKVEIKR
0.0197 nM	0.000319 s⁻¹	1.62e+07 M⁻¹ s⁻¹	0.16 nM	–	–	–	–	–	–	–	–	0.0197 nM	0.000319 s⁻¹	1.62e+07 M⁻¹ s⁻¹	604C (antibody, V domains shown) VH: EVQLVQSGAEVKKPGSSVKVSCKASGGTFSDSYMHWVRQAPGQGLEWMGLIYPIFADTRYAQKFQGRVTITADESTSTAYMELSSLRSEDTAVYYCAIDQDGSFAYWGQGTLVTVSS VL: DIVMTQSPDSLAVSLGERATINCKSSQSLLDSDGKTYLNWLQQKPGQPPKRLIYWASTRESGVPDRFSGSGSGTDFTLTISSLQAEDVAVYYCWQGTWFDLTFGGGTKVEIK
0.017 nM	0.000566 s⁻¹	3.33e+07 M⁻¹ s⁻¹	0.15 nM	–	225 nM	0.154 nM	0.00101 s⁻¹	6.58e+06 M⁻¹ s⁻¹	0.0328 nM	0.000565 s⁻¹	1.72e+07 M⁻¹ s⁻¹	0.017 nM	0.000566 s⁻¹	3.33e+07 M⁻¹ s⁻¹	605C (antibody, V domains shown) VH: EVQLVQSGAEVKKPGSSVKVSCKASGGTFSDSYMHWVRQAPGQGLEWMGLIYPIFADTRYAQKFQGRVTITADESTSTAYMELSSLRSEDTAVYYCAIDQDGSFAYWGQGTLVTVSS VL: DIVMTQSPDSLAVSLGERATINCKSSQSLLDADGKTYLNWLQQKPGQPPKRLIYWASTRESGVPDRFSGSGSGTDFTLTISSLQAEDVAVYYCWQGTWFDLTFGGGTKVEIK
